Measured values from publication PMC4134263.
Like-named read-outs stand apart in the source and are kept apart here.

How the values were obtained:
[1] = target: T1, PdhR (Escherichia coli, UniProt P0ACL9 1-254); experiment: EMSA
[2] = target: T1, PdhR; experiment: EMSA; remark: listed apart in the source

T1 sequence (P0ACL9 whole entry): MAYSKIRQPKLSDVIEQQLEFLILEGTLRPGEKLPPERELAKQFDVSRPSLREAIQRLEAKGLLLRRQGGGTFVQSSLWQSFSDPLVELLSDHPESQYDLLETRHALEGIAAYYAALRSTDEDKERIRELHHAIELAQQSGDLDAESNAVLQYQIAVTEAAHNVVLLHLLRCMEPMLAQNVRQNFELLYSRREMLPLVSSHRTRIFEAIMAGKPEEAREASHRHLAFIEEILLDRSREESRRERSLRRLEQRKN

| Binder | binding result [1] | binding result [2] |
| --- | --- | --- |
| lipA site 1 probe (dsDNA) DNA 1: GAAACGCTTTCCTTCGTAATTCGCAACTGGAACACGCACGCTATGAG DNA 2: CTCATAGCGTGCGTGTTCCAGTTGCGAATTACGAAGGAAAGCGTTTC | no binding |  |
| lipA site 2 probe (dsDNA) DNA 1: CAAAAATAGTTGATAATTACAACAATCTATTGAATTGAAACGC DNA 2: GCGTTTCAATTCAATAGATTGTTGTAATTATCAACTATTTTTG |  | no binding |
